These results are taken from publication PMC6479807.

Experiment [1] addresses PsSYM10 extracellular domain (PsSYM10-ECD) (Pisum sativum (pea)).
The target is the same in experiment [2]. This is another data set of the same source.
Experiment [3] has the same target. The source holds these as a separate data set.

“PsK1 extracellular domain (PsK1-ECD), wild type (domain or fragment)” displayed a hypersensitive response (cell death) in N. benthamiana leaves 48–72 h after infiltration, on co-production of full-length PsSYM10-3xFLAG and PsK1-6xHIS; percent of leaves with HR in experiment [1] of 90%. As to “PsK1-ECD with P169S replacement in LysM3 (as in the k1-2 mutant line) (domain or fragment)”, the hypersensitive response in N. benthamiana leaves on co-production of full-length PsSYM10 and full-length PsK1-6xHIS with P169→S; percent of leaves with HR in experiment [2] worked out at 53%. In experiment [3], “PsK1-ECD with S59F replacement in LysM1 (as in the k1-3 mutant line) (domain or fragment)” gave a hypersensitive response in N. benthamiana leaves on co-production of full-length PsSYM10 and full-length PsK1-6xHIS with the LysM1 replacement (k1-3); percent of leaves with HR of 93%.
